Test [1] has as its target T1, FcγRIIa H (human, UniProt P12318 34-217).
T1 construct: extracellular domain; also called FcgRIIa H; 2aH; not shown: His tag attached to the C terminus
T1 sequence (looked up): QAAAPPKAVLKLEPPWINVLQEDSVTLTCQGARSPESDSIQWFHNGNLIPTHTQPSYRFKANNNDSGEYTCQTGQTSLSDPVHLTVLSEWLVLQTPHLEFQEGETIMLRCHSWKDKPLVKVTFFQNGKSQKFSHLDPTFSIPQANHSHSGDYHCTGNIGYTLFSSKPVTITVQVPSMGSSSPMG
The test can be described thus: SPR; He/Con for FcγRIIa H divided by He/Con for FcγRIIb. Background: SPR reads the build-up and loss of mass on a sensor chip optically.

In the next test the target is T2, FcγRIIb (human, UniProt P31994 43-217).
T2 construct: extracellular domain; also called FcgRIIb; 2b; not shown: His tag attached to the C terminus
T2 sequence (looked up): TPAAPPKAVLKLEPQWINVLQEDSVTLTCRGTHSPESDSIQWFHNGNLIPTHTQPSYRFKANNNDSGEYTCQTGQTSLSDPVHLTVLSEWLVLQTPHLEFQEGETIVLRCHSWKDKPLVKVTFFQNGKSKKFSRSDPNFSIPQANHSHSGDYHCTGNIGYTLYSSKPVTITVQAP
Put plainly: SPR (Biacore), antibody captured on antigen peptide chip, FcγR as analyte; relative binding activity. As for the experimental part:
(§1) The heterodimerized antibodies He Abs in which one of the H chains was introduced with an alteration were assayed for their binding activities to each activating FcγR and inhibitory FcγR according to the method described in Example 4. […] The activating FcγRs in FIGS. 26, 27, 28, and 29 are FcγRIa, FcγRIIa (R), FcγRIIa (H), and FcγRIIIa, respectively.
(§2) Analysis of interaction between objective antibody and the FcγR was carried out using Biacore T100 (GE Healthcare). HBS-EP+ (GE Healthcare) was used as the running buffer, and the measurement temperature was set to 25° C. Chips produced by immobilizing the antigen peptide by the amine coupling method to a Series S Sencor Chip CM5 (GE Healthcare), or alternatively, chips produced by allowing preliminarily biotinylated antigen peptides to interact with and immobilize onto a Series S Sensor Chip SA (certified) (GE Healthcare) were used. Antibodies of interest were captured onto an antigen peptide-immobilized chip, and allowed to interact to each FcγR diluted with running buffer. To regenerate and repeatedly use the chip, the antibodies captured on the chip were washed off by reacting 10 mM glycine-HCl, pH 1.5.

In test [2] the target is T1, FcγRIIa H. The description is as above. As for the experimental part:
as §1, §2

Results on seven molecules are retold here after patent US20150344570A1 (published 2015).

B1: GpH7-A5/GpH7-B3 variant D265_11K/GpL16-k0 (antibody, human IgG1, kappa)
heavy 1: not shown
heavy 2: not shown
light: DIVMTQSPLSLPVTPGEPASISCQASESLVHSNRNTYLHWYLQKPGQSPQLLIYKVSNRFSGVPDRFSGSGSGTDFTLKISRVEAEDVGVYYCSQNTHVPPTFGQGTKVEIERTVAAPSVFIFPPSDEQLKSGTASVVCLLNNFYPREAKVQWKVDNALQSGNSQESVTEQDSKDSTYSLSSTLTLSKADYEKHKVYACEVTHQGLSSPVTKSFNRGEC
notes: Heterodimerized anti-glypican-3 IgG1; mutation in one H chain only; also called He Ab
For B1, in the test with FcγRIIa H [1], the “He_2aH/2b (IIaH/IIb)” value was 1.87 ratio. The He/Con_2b with FcγRIIb is 14.9 % of GpH7-A5/GpH7-B3/GpL16-k0 (=100). Also, in the test with FcγRIIa H [2], the He/Con_2aH is 27.8 % of GpH7-A5/GpH7-B3/GpL16-k0 (=100).

B2: GpH7-A5/GpH7-B3 variant D265_13S/GpL16-k0 (antibody, human IgG1, kappa)
heavy 1: not shown
heavy 2: not shown
light: DIVMTQSPLSLPVTPGEPASISCQASESLVHSNRNTYLHWYLQKPGQSPQLLIYKVSNRFSGVPDRFSGSGSGTDFTLKISRVEAEDVGVYYCSQNTHVPPTFGQGTKVEIERTVAAPSVFIFPPSDEQLKSGTASVVCLLNNFYPREAKVQWKVDNALQSGNSQESVTEQDSKDSTYSLSSTLTLSKADYEKHKVYACEVTHQGLSSPVTKSFNRGEC
notes: as for B1
For the molecule B2, the “He_2aH/2b (IIaH/IIb)” value with FcγRIIa H [1] was found to be 1.75 ratio. Also, the He/Con_2b with FcγRIIb was 11.3 % of GpH7-A5/GpH7-B3/GpL16-k0 (=100). Moreover, the He/Con_2aH with FcγRIIa H [2] was 19.8 % of GpH7-A5/GpH7-B3/GpL16-k0 (=100).

B3: GpH7-A5/GpH7-B3 variant D265_12R/GpL16-k0 (antibody, human IgG1, kappa)
heavy 1: not shown
heavy 2: not shown
light: DIVMTQSPLSLPVTPGEPASISCQASESLVHSNRNTYLHWYLQKPGQSPQLLIYKVSNRFSGVPDRFSGSGSGTDFTLKISRVEAEDVGVYYCSQNTHVPPTFGQGTKVEIERTVAAPSVFIFPPSDEQLKSGTASVVCLLNNFYPREAKVQWKVDNALQSGNSQESVTEQDSKDSTYSLSSTLTLSKADYEKHKVYACEVTHQGLSSPVTKSFNRGEC
notes: as for B1
Consider B3, for which, in the test with FcγRIIa H [1], the “He_2aH/2b (IIaH/IIb)” value came out at 1.87 ratio. In addition, the He/Con_2b with FcγRIIb is 15 % of GpH7-A5/GpH7-B3/GpL16-k0 (=100). In the test with FcγRIIa H [2], the He/Con_2aH was 28 % of GpH7-A5/GpH7-B3/GpL16-k0 (=100).

B4: GpH7-A5/GpH7-B3 variant D265_18N/GpL16-k0 (antibody, human IgG1, kappa)
heavy 1: not shown
heavy 2: not shown
light: DIVMTQSPLSLPVTPGEPASISCQASESLVHSNRNTYLHWYLQKPGQSPQLLIYKVSNRFSGVPDRFSGSGSGTDFTLKISRVEAEDVGVYYCSQNTHVPPTFGQGTKVEIERTVAAPSVFIFPPSDEQLKSGTASVVCLLNNFYPREAKVQWKVDNALQSGNSQESVTEQDSKDSTYSLSSTLTLSKADYEKHKVYACEVTHQGLSSPVTKSFNRGEC
notes: as for B1
In the case of B4, the “He_2aH/2b (IIaH/IIb)” value with FcγRIIa H [1] is 2.01 ratio. Moreover, in the test with FcγRIIb, the He/Con_2b was 6.1 % of GpH7-A5/GpH7-B3/GpL16-k0 (=100). Moreover, the He/Con_2aH with FcγRIIa H [2] is 12.4 % of GpH7-A5/GpH7-B3/GpL16-k0 (=100).

B5: GpH7-A5/GpH7-B3 variant D265_15Y/GpL16-k0 (antibody, human IgG1, kappa)
heavy 1: not shown
heavy 2: not shown
light: DIVMTQSPLSLPVTPGEPASISCQASESLVHSNRNTYLHWYLQKPGQSPQLLIYKVSNRFSGVPDRFSGSGSGTDFTLKISRVEAEDVGVYYCSQNTHVPPTFGQGTKVEIERTVAAPSVFIFPPSDEQLKSGTASVVCLLNNFYPREAKVQWKVDNALQSGNSQESVTEQDSKDSTYSLSSTLTLSKADYEKHKVYACEVTHQGLSSPVTKSFNRGEC
notes: as for B1
As for B5, the “He_2aH/2b (IIaH/IIb)” value in the test with FcγRIIa H [1] came out at 6.07 ratio. For the same molecule, the He/Con_2b with FcγRIIb is 0.6 % of GpH7-A5/GpH7-B3/GpL16-k0 (=100). The He/Con_2aH in the test with FcγRIIa H [2] was 3.7 % of GpH7-A5/GpH7-B3/GpL16-k0 (=100).

B6: GpH7-A5/GpH7-B3 variant D265_16H/GpL16-k0 (antibody, human IgG1, kappa)
heavy 1: not shown
heavy 2: not shown
light: DIVMTQSPLSLPVTPGEPASISCQASESLVHSNRNTYLHWYLQKPGQSPQLLIYKVSNRFSGVPDRFSGSGSGTDFTLKISRVEAEDVGVYYCSQNTHVPPTFGQGTKVEIERTVAAPSVFIFPPSDEQLKSGTASVVCLLNNFYPREAKVQWKVDNALQSGNSQESVTEQDSKDSTYSLSSTLTLSKADYEKHKVYACEVTHQGLSSPVTKSFNRGEC
notes: as for B1
For the molecule B6, in the test with FcγRIIa H [1], the “He_2aH/2b (IIaH/IIb)” value worked out at 1.27 ratio. Further, the He/Con_2b in the test with FcγRIIb was 38.3 % of GpH7-A5/GpH7-B3/GpL16-k0 (=100). For the same molecule, the He/Con_2aH with FcγRIIa H [2] is 48.6 % of GpH7-A5/GpH7-B3/GpL16-k0 (=100).

B7: GpH7-A5/GpH7-B3 variant D265_14T/GpL16-k0 (antibody, human IgG1, kappa)
heavy 1: not shown
heavy 2: not shown
light: DIVMTQSPLSLPVTPGEPASISCQASESLVHSNRNTYLHWYLQKPGQSPQLLIYKVSNRFSGVPDRFSGSGSGTDFTLKISRVEAEDVGVYYCSQNTHVPPTFGQGTKVEIERTVAAPSVFIFPPSDEQLKSGTASVVCLLNNFYPREAKVQWKVDNALQSGNSQESVTEQDSKDSTYSLSSTLTLSKADYEKHKVYACEVTHQGLSSPVTKSFNRGEC
notes: as for B1
Consider B7, for which the “He_2aH/2b (IIaH/IIb)” value with FcγRIIa H [1] amounted to 1.5 ratio. In addition, the He/Con_2b with FcγRIIb is 16 % of GpH7-A5/GpH7-B3/GpL16-k0 (=100). Moreover, the He/Con_2aH with FcγRIIa H [2] was 24.1 % of GpH7-A5/GpH7-B3/GpL16-k0 (=100).
